Results: US20090311283A1
Like-named read-outs stand apart in the source and are kept apart here.

What was measured:
[1] = target: HLA-A*0201 (human)
[2] = target: HLA-A*0201 (Human)
[3] = target: HLA-A*0301 (human); assay: competitive inhibition of 125I-labelled probe peptide binding to purified HLA, gel filtration; conditions: scale: ratio
[4] = target: HLA-A*0201 (human); assay: competition with 125I-labelled probe peptide for purified HLA, gel filtration
[5] = target: HLA-A*0301 (human); assay: as above
[6] = remark: other sources report otherwise

B1: HBV ENV 254 peptide LIFLLVLL (peptide)
peptide: LIFLLVLL
modifications: not checked
binding affinity ratio (IC50 of standard peptide / IC50 of test peptide) [1]: 0.0025

B2: HBV POL 59 … (peptide)
peptide: FTGLYSSTV
modifications: not checked
binding affinity ratio (IC50 of standard peptide / IC50 of test peptide) [2]: 0.0005

B3: HBV X 132 … (peptide)
peptide: FVLGGCRHKL
modifications: not checked
binding affinity ratio (IC50 of standard peptide / IC50 of test peptide) [2]: 0.003

B4: HBV POL 122 peptide … (peptide)
peptide: YLPLDKGIK
modifications: not checked
binding affinity ratio (relative binding to standard peptide) [3]: 0.0001

B5: HBV POL 406 peptide … (peptide)
peptide: NLLSSNLSWL
modifications: not checked
binding affinity ratio (IC50 of standard peptide / IC50 of test peptide) (ratio to standard peptide) [2]: 0.0016

B6: HBV X 92 peptide … (peptide)
peptide: VLHKRTLGL
modifications: not checked
binding affinity ratio (IC50 of standard peptide / IC50 of test peptide) [2, 6]: 0.0012

B7: HBV NUC 123 peptide … (peptide)
peptide: GVWIRTPPA
modifications: not checked
binding affinity ratio (IC50 of standard peptide / IC50 of test peptide) [2]: 0.003

B8: HBV POL 625 peptide … (peptide)
peptide: IVGLLGFAA
modifications: not checked
binding affinity ratio (IC50 of standard peptide / IC50 of test peptide) [2]: 0.0009

B9: HBV NUC 138 peptide … (peptide)
peptide: PILSTLPETTV
modifications: not checked
binding affinity ratio (IC50 of standard peptide / IC50 of test peptide) [4]: 0.0001

B10: HBV NUC 177 peptide … (peptide)
peptide: VVRRRGRSPR
modifications: not checked
binding affinity ratio (IC50 of standard peptide / IC50 of test peptide) (ratio to standard peptide) [5]: 0.0027

B11: HBV ENV 243 FIIFLFIL (peptide)
peptide: FIIFLFIL
modifications: not checked
binding affinity ratio (IC50 of standard peptide / IC50 of test peptide) [2]: 0.0006

B12: HBV POL 751 10-mer peptide … (peptide)
peptide: WLLGCAANWI
modifications: not checked
binding affinity ratio (IC50 of standard peptide / IC50 of test peptide) [1]: 0.0053

B13: HBV ENV 249 peptide … (peptide)
peptide: ILLLCLIFL
modifications: not checked
binding affinity ratio (IC50 of standard peptide / IC50 of test peptide) [2]: 0.0015

B14: … (HBV NUC 177) (peptide)
peptide: VVRRRGRSPR
modifications: not checked
binding affinity ratio (IC50 of standard peptide / IC50 of test peptide) [5]: 0.0027

B15: HBV POL 20 peptide … (peptide)
peptide: PLEEELPRLA
modifications: not checked
binding affinity ratio (IC50 of standard peptide / IC50 of test peptide) [4]: 0.0001

B16: HBV NUC 141 peptide … (peptide)
peptide: STLPETTVV
modifications: not checked
binding affinity ratio (IC50 of standard peptide / IC50 of test peptide) [2]: 0.0019

B17: HBV ENV 246 … (peptide)
peptide: FLFILLLCL
modifications: not checked
binding affinity ratio (IC50 of standard peptide / IC50 of test peptide) [2]: 0.0002

B18: HBV POL 414 9-mer peptide … (peptide)
peptide: WLSLDVSAA
modifications: not checked
binding affinity ratio (IC50 of standard peptide / IC50 of test peptide) [1]: 0.0059

B19: HBV X 15 peptide … (peptide)
peptide: VLCLRPVGA
modifications: not checked
binding affinity ratio (IC50 of standard peptide / IC50 of test peptide) [2, 6]: 0.0014

B20: HBV NUC 118 peptide … (peptide)
peptide: YLVSFGVWIR
modifications: not checked
binding affinity ratio (relative binding to standard peptide) [3]: 0.0005

B21: HBV ENV 10 peptide … (peptide)
peptide: PLGFFPDHQL
modifications: not checked
binding affinity ratio (IC50 of standard peptide / IC50 of test peptide) [4]: 0.0002

B22: HBV X 133 peptide … (peptide)
peptide: VLGGCRHKL
modifications: not checked
binding affinity ratio (IC50 of standard peptide / IC50 of test peptide) [2]: 0.0009

B23: HBV NUC 26 peptide … (peptide)
peptide: WLWGMDIDPYK
modifications: not checked
binding affinity ratio (relative binding to standard peptide) [3, 6]: 0.003

B24: HBV POL 20 peptide … (peptide)
peptide: PLEEELPRL
modifications: not checked
binding affinity ratio (IC50 of standard peptide / IC50 of test peptide) [4]: 0.0003

B25: HBV POL 581 9-mer … (peptide)
peptide: SLNFMGYVI
modifications: not checked
binding affinity ratio (IC50 of standard peptide / IC50 of test peptide) [2]: 0.0038

B26: HBV POL 641 peptide … (peptide)
peptide: PALMPLYACI
modifications: not checked
binding affinity ratio (IC50 of standard peptide / IC50 of test peptide) [4]: 0.0001
